Results: article PMC10679481

Key:
PKA-C-eGFP [1] = molecular target: PKA-C-eGFP (UniProt P17612); experiment: co-IP; nanobead-based sc-SiMPull: single HEK293T cells coexpressing PKA-C-eGFP and PKA-R-HA lysed in situ in microwells, anti-GFP-coated nanobeads, PKA-R-HA visualised by immunostaining with anti-HA and fluorophore-conjugated 2nd antibody
PKA-C-eGFP [2] = molecular target: PKA-C-eGFP (UniProt P17612); experiment: co-IP; nanobead-based sc-SiMPull: single HEK293T cells trapped in microwells and lysed in situ, anti-GFP-coated magnetic nanobeads capture PKA-C-eGFP, mCherry seen directly by confocal microscopy; control conditions (no cAMP); room temperature

Substance | percent of GFP spots colocalized with the anti-HA (Alexa 561) spots (PKA-C-eGFP [1]) [%] | percent of GFP and mCherry signals colocalized (PKA-C-eGFP [2]) [%]
PKA-R-HA (from UniProt P10644 1-381) (natural protein) | 60 | –
PKA-R-mCherry (from UniProt P10644 1-381) (natural protein) | – | 70
